Experimental data taken from patent US20210388087A1 (Chugai, published 2021).

These binders were tested against T1, CD3 epsilon homodimer protein (UniProt P07766 23-126) (assay: SPR (Biacore T200), CD3 epsilon homodimer on CM4 chip, one-arm antibody as analyte, 25 C;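 note: homodimer attached to the sensor surface via amine coupling, HBS-EP+ used as running buffer during binding runs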).
T1 construct: immobilized on Sensor chip CM4 by amine coupling; also called CD3 (CD3 epsilon)
T1 sequence (P07766 23-126): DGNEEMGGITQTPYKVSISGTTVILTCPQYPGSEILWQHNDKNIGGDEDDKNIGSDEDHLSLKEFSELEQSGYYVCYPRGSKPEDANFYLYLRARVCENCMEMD

Binder	ratio of amounts bound (altered form / CE115HA000)
CE115HA000 D101S one-arm antibody (antibody, human IgG1, kappa, L234A L235A, N297A, name in Kabat numbering) heavy: QVQLVESGGGVVQPGRSLRLSCAASGFTFSNAWMHWVRQAPGKGLEWVAQIKAKSNNYATYYAESVKGRFTISRDDSKNSLYLQMNSLKTEDTAVYYCRYVHYGAYYGVSAWGQGTTVTVSSASTKGPSVFPLAPSSKSTSGGTAALGCLVKDYFPEPVTVSWNSGALTSGVHTFPAVLQSSGLYSLSSVVTVPSSSLGTQTYICNVNHKPSNTKVDKKVEPKSCDKTHTCPPCPAPEAAGGPSVFLFPPKPKDTLMISRTPEVTCVVVDVSHEDPEVKFNWYVDGVEVHNAKTKPREEQYASTYRVVSVLTVLHQDWLNGKEYKCKVSNKALPAPIEKTISKAKGQPREPQVYTLPPSRCELTKNQVSLSCAVKGFYPSDIAVEWESNGQPENNYKTTPPVLDSDGSFFLVSKLTVDKSRWQQGNVFSCSVMHEALHNHYTQKSLSLSPDYKDDDDK EPKSSDKTHTCPPCPAPELLGGPSVFLFPPKPKDTLMISRTPEVTCVVVDVSHEDPEVKFNWYVDGVEVHNAKTKPREEQYNSTYRVVSVLTVLHQDWLNGKEYKCKVSNKALPAPIEKTISKAKGQPREPQVCTLPPSRDELTKNQVSLWCLVKGFYPSDIAVEWESNGQPENNYKTTPPVLDSDGSFFLYSKLTVDKSRWQQGNVFSCSVMHEALHNRYTQKSLSLSP light: DIVMTQSPLSLPVTPGEPASISCRSSQSLVHSNRNTYLHWYQQKPGQAPRLLIYKVSNRFSGVPDRFSGSGSGTDFTLKISRVEAEDVGVYYCGQGTQVPYTFGQGTKLEIKRTVAAPSVFIFPPSDEQLKSGTASVVCLLNNFYPREAKVQWKVDNALQSGNSQESVTEQDSKDSTYSLSSTLTLSKADYEKHKVYACEVTHQGLSSPVTKSFNRGEC	1.16
CE115HA000 D101V one-arm antibody (antibody, human IgG1, kappa, L234A L235A, N297A, name in Kabat numbering) heavy: QVQLVESGGGVVQPGRSLRLSCAASGFTFSNAWMHWVRQAPGKGLEWVAQIKAKSNNYATYYAESVKGRFTISRDDSKNSLYLQMNSLKTEDTAVYYCRYVHYGAYYGVVAWGQGTTVTVSSASTKGPSVFPLAPSSKSTSGGTAALGCLVKDYFPEPVTVSWNSGALTSGVHTFPAVLQSSGLYSLSSVVTVPSSSLGTQTYICNVNHKPSNTKVDKKVEPKSCDKTHTCPPCPAPEAAGGPSVFLFPPKPKDTLMISRTPEVTCVVVDVSHEDPEVKFNWYVDGVEVHNAKTKPREEQYASTYRVVSVLTVLHQDWLNGKEYKCKVSNKALPAPIEKTISKAKGQPREPQVYTLPPSRCELTKNQVSLSCAVKGFYPSDIAVEWESNGQPENNYKTTPPVLDSDGSFFLVSKLTVDKSRWQQGNVFSCSVMHEALHNHYTQKSLSLSPDYKDDDDK EPKSSDKTHTCPPCPAPELLGGPSVFLFPPKPKDTLMISRTPEVTCVVVDVSHEDPEVKFNWYVDGVEVHNAKTKPREEQYNSTYRVVSVLTVLHQDWLNGKEYKCKVSNKALPAPIEKTISKAKGQPREPQVCTLPPSRDELTKNQVSLWCLVKGFYPSDIAVEWESNGQPENNYKTTPPVLDSDGSFFLYSKLTVDKSRWQQGNVFSCSVMHEALHNRYTQKSLSLSP light: DIVMTQSPLSLPVTPGEPASISCRSSQSLVHSNRNTYLHWYQQKPGQAPRLLIYKVSNRFSGVPDRFSGSGSGTDFTLKISRVEAEDVGVYYCGQGTQVPYTFGQGTKLEIKRTVAAPSVFIFPPSDEQLKSGTASVVCLLNNFYPREAKVQWKVDNALQSGNSQESVTEQDSKDSTYSLSSTLTLSKADYEKHKVYACEVTHQGLSSPVTKSFNRGEC	1.33
CE115HA000 E61A one-arm antibody (antibody, human IgG1, kappa, L234A L235A, N297A, name in Kabat numbering) heavy: QVQLVESGGGVVQPGRSLRLSCAASGFTFSNAWMHWVRQAPGKGLEWVAQIKAKSNNYATYYAASVKGRFTISRDDSKNSLYLQMNSLKTEDTAVYYCRYVHYGAYYGVDAWGQGTTVTVSSASTKGPSVFPLAPSSKSTSGGTAALGCLVKDYFPEPVTVSWNSGALTSGVHTFPAVLQSSGLYSLSSVVTVPSSSLGTQTYICNVNHKPSNTKVDKKVEPKSCDKTHTCPPCPAPEAAGGPSVFLFPPKPKDTLMISRTPEVTCVVVDVSHEDPEVKFNWYVDGVEVHNAKTKPREEQYASTYRVVSVLTVLHQDWLNGKEYKCKVSNKALPAPIEKTISKAKGQPREPQVYTLPPSRCELTKNQVSLSCAVKGFYPSDIAVEWESNGQPENNYKTTPPVLDSDGSFFLVSKLTVDKSRWQQGNVFSCSVMHEALHNHYTQKSLSLSPDYKDDDDK EPKSSDKTHTCPPCPAPELLGGPSVFLFPPKPKDTLMISRTPEVTCVVVDVSHEDPEVKFNWYVDGVEVHNAKTKPREEQYNSTYRVVSVLTVLHQDWLNGKEYKCKVSNKALPAPIEKTISKAKGQPREPQVCTLPPSRDELTKNQVSLWCLVKGFYPSDIAVEWESNGQPENNYKTTPPVLDSDGSFFLYSKLTVDKSRWQQGNVFSCSVMHEALHNRYTQKSLSLSP light: DIVMTQSPLSLPVTPGEPASISCRSSQSLVHSNRNTYLHWYQQKPGQAPRLLIYKVSNRFSGVPDRFSGSGSGTDFTLKISRVEAEDVGVYYCGQGTQVPYTFGQGTKLEIKRTVAAPSVFIFPPSDEQLKSGTASVVCLLNNFYPREAKVQWKVDNALQSGNSQESVTEQDSKDSTYSLSSTLTLSKADYEKHKVYACEVTHQGLSSPVTKSFNRGEC	1.09
CE115HA000 D101Y one-arm antibody (antibody, human IgG1, kappa, L234A L235A, N297A, name in Kabat numbering) heavy: QVQLVESGGGVVQPGRSLRLSCAASGFTFSNAWMHWVRQAPGKGLEWVAQIKAKSNNYATYYAESVKGRFTISRDDSKNSLYLQMNSLKTEDTAVYYCRYVHYGAYYGVYAWGQGTTVTVSSASTKGPSVFPLAPSSKSTSGGTAALGCLVKDYFPEPVTVSWNSGALTSGVHTFPAVLQSSGLYSLSSVVTVPSSSLGTQTYICNVNHKPSNTKVDKKVEPKSCDKTHTCPPCPAPEAAGGPSVFLFPPKPKDTLMISRTPEVTCVVVDVSHEDPEVKFNWYVDGVEVHNAKTKPREEQYASTYRVVSVLTVLHQDWLNGKEYKCKVSNKALPAPIEKTISKAKGQPREPQVYTLPPSRCELTKNQVSLSCAVKGFYPSDIAVEWESNGQPENNYKTTPPVLDSDGSFFLVSKLTVDKSRWQQGNVFSCSVMHEALHNHYTQKSLSLSPDYKDDDDK EPKSSDKTHTCPPCPAPELLGGPSVFLFPPKPKDTLMISRTPEVTCVVVDVSHEDPEVKFNWYVDGVEVHNAKTKPREEQYNSTYRVVSVLTVLHQDWLNGKEYKCKVSNKALPAPIEKTISKAKGQPREPQVCTLPPSRDELTKNQVSLWCLVKGFYPSDIAVEWESNGQPENNYKTTPPVLDSDGSFFLYSKLTVDKSRWQQGNVFSCSVMHEALHNRYTQKSLSLSP light: DIVMTQSPLSLPVTPGEPASISCRSSQSLVHSNRNTYLHWYQQKPGQAPRLLIYKVSNRFSGVPDRFSGSGSGTDFTLKISRVEAEDVGVYYCGQGTQVPYTFGQGTKLEIKRTVAAPSVFIFPPSDEQLKSGTASVVCLLNNFYPREAKVQWKVDNALQSGNSQESVTEQDSKDSTYSLSSTLTLSKADYEKHKVYACEVTHQGLSSPVTKSFNRGEC	0.49
CE115HA000 E61D one-arm antibody (antibody, human IgG1, kappa, L234A L235A, N297A, name in Kabat numbering) heavy: QVQLVESGGGVVQPGRSLRLSCAASGFTFSNAWMHWVRQAPGKGLEWVAQIKAKSNNYATYYADSVKGRFTISRDDSKNSLYLQMNSLKTEDTAVYYCRYVHYGAYYGVDAWGQGTTVTVSSASTKGPSVFPLAPSSKSTSGGTAALGCLVKDYFPEPVTVSWNSGALTSGVHTFPAVLQSSGLYSLSSVVTVPSSSLGTQTYICNVNHKPSNTKVDKKVEPKSCDKTHTCPPCPAPEAAGGPSVFLFPPKPKDTLMISRTPEVTCVVVDVSHEDPEVKFNWYVDGVEVHNAKTKPREEQYASTYRVVSVLTVLHQDWLNGKEYKCKVSNKALPAPIEKTISKAKGQPREPQVYTLPPSRCELTKNQVSLSCAVKGFYPSDIAVEWESNGQPENNYKTTPPVLDSDGSFFLVSKLTVDKSRWQQGNVFSCSVMHEALHNHYTQKSLSLSPDYKDDDDK EPKSSDKTHTCPPCPAPELLGGPSVFLFPPKPKDTLMISRTPEVTCVVVDVSHEDPEVKFNWYVDGVEVHNAKTKPREEQYNSTYRVVSVLTVLHQDWLNGKEYKCKVSNKALPAPIEKTISKAKGQPREPQVCTLPPSRDELTKNQVSLWCLVKGFYPSDIAVEWESNGQPENNYKTTPPVLDSDGSFFLYSKLTVDKSRWQQGNVFSCSVMHEALHNRYTQKSLSLSP light: DIVMTQSPLSLPVTPGEPASISCRSSQSLVHSNRNTYLHWYQQKPGQAPRLLIYKVSNRFSGVPDRFSGSGSGTDFTLKISRVEAEDVGVYYCGQGTQVPYTFGQGTKLEIKRTVAAPSVFIFPPSDEQLKSGTASVVCLLNNFYPREAKVQWKVDNALQSGNSQESVTEQDSKDSTYSLSSTLTLSKADYEKHKVYACEVTHQGLSSPVTKSFNRGEC	0.91
CE115HA000 D101T one-arm antibody (antibody, human IgG1, kappa, L234A L235A, N297A, name in Kabat numbering) heavy: QVQLVESGGGVVQPGRSLRLSCAASGFTFSNAWMHWVRQAPGKGLEWVAQIKAKSNNYATYYAESVKGRFTISRDDSKNSLYLQMNSLKTEDTAVYYCRYVHYGAYYGVTAWGQGTTVTVSSASTKGPSVFPLAPSSKSTSGGTAALGCLVKDYFPEPVTVSWNSGALTSGVHTFPAVLQSSGLYSLSSVVTVPSSSLGTQTYICNVNHKPSNTKVDKKVEPKSCDKTHTCPPCPAPEAAGGPSVFLFPPKPKDTLMISRTPEVTCVVVDVSHEDPEVKFNWYVDGVEVHNAKTKPREEQYASTYRVVSVLTVLHQDWLNGKEYKCKVSNKALPAPIEKTISKAKGQPREPQVYTLPPSRCELTKNQVSLSCAVKGFYPSDIAVEWESNGQPENNYKTTPPVLDSDGSFFLVSKLTVDKSRWQQGNVFSCSVMHEALHNHYTQKSLSLSPDYKDDDDK EPKSSDKTHTCPPCPAPELLGGPSVFLFPPKPKDTLMISRTPEVTCVVVDVSHEDPEVKFNWYVDGVEVHNAKTKPREEQYNSTYRVVSVLTVLHQDWLNGKEYKCKVSNKALPAPIEKTISKAKGQPREPQVCTLPPSRDELTKNQVSLWCLVKGFYPSDIAVEWESNGQPENNYKTTPPVLDSDGSFFLYSKLTVDKSRWQQGNVFSCSVMHEALHNRYTQKSLSLSP light: DIVMTQSPLSLPVTPGEPASISCRSSQSLVHSNRNTYLHWYQQKPGQAPRLLIYKVSNRFSGVPDRFSGSGSGTDFTLKISRVEAEDVGVYYCGQGTQVPYTFGQGTKLEIKRTVAAPSVFIFPPSDEQLKSGTASVVCLLNNFYPREAKVQWKVDNALQSGNSQESVTEQDSKDSTYSLSSTLTLSKADYEKHKVYACEVTHQGLSSPVTKSFNRGEC	0.79
